Experiment [1] addresses T1, human FolR2 on transfected HEK cells (human, UniProt P14207 17-230).
T1 construct: whole, on cells
Put plainly: flow cytometry on transfected HEK cells.

The target of experiment [2] is T2, human FolR1 expressed on cells (HeLa, SKOV3, HT-29, transfected HEK cells) (human, UniProt P15328 25-234).
T2 construct: whole, on cells; also called FolR1 on HeLa cells; human FolR1 on cells
Put plainly: flow cytometry on transfected HEK cells. A general note: In flow cytometry, cells or beads pass a laser one at a time.

Experiment [3] has as its target T3, recombinant biotinylated monomeric Fc fusion of human Folate Receptor 2 (hu FolR2 ECD-AcTev-Fcknob-Avi tag … (human, UniProt P0DOX5 223-449 = IgG part, biotin on the C-terminal Avi tag)).
T3 construct: also called FolR2-Fc
Put plainly: SPR Biacore, single injection on immobilized antigen-Fc. In short, it runs like this:
(§1)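 Biacore T200 at 25 °C in HBS-EP (HEPES pH 7.4). Biotinylated FolR-Fc fusions captured on SA chip at about 300-400 RU. IgGs injected once at 500 nM for 60 s to assess cross-reactivity and specificity.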
A general note: SPR reads the build-up and loss of mass on a sensor chip optically.

Experiment [4] deals with T4, recombinant biotinylated monomeric Fc fusion of human Folate Receptor 3 (hu FolR3 ECD-AcTev-Fcknob-Avi tag … (human, UniProt P0DOX5 223-449 = IgG part, biotin on the C-terminal Avi tag)).
T4 construct: also called FolR3-Fc
The description is as above. In short, it runs like this: as §1

Experiment [5] concerns the target T5, recombinant biotinylated monomeric Fc fusion of cynomolgus Folate Receptor 1 (cy FolR1 ECD-AcTev-Fcknob-Avi … (cynomolgus, UniProt P0DOX5 223-449 = IgG part, biotin on the C-terminal Avi tag)).
T5 construct: also called cyFolR1-Fc; cyno FolR1
Put plainly: SPR Biacore, avidity (bivalent, apparent KD), antigen-Fc on SA chip. As to the method: (§2) Binding of FolR1 binders as IgG or in the T-cell bispecific format to different recombinant folate receptors (human FolR1, 2 and 3, murine FolR1 and cynomolgus FolR1; all as Fc fusions) was assessed by surface plasmon resonance (SPR). All SPR experiments were performed on a Biacore T200 at 25° C. with HBS-EP as running buffer (0.01 M HEPES pH 7.4, 0.15 M NaCl, 3 mM EDTA, 0.005% Surfactant P20, Biacore, Freiburg/Germany).
(§3) Recombinant biotinylated monomeric Fc fusions of human, cynomolgus and murine Folate Receptor 1 (FolR1-Fc) were directly coupled on a SA chip using the standard coupling instruction (Biacore, Freiburg/Germany). The immobilization level was about 300-400 RU. The anti-FolR1 IgGs or T cell bispecifics were passed at a concentration range from 2.1 to 500 nM with a flow of 30 μL/minutes through the flow cells over 180 seconds. The dissociation was monitored for 600 seconds. Bulk refractive index differences were corrected for by subtracting the response obtained on reference flow cell immobilized with recombinant biotinylated IL2 receptor Fc fusion. […] The binding curves resulting from the bivalent binding of the IgGs or T cell bispecifics were approximated to a 1:1 Langmuir binding and fitted with that model (which is not correct, but gives an idea of the avidity). The apparent avidity constants for the interactions were derived from the rate constants of the fitting using the Bia Evaluation software (GE Healthcare).

Experiment [6] concerns the target T6, recombinant biotinylated monomeric Fc fusion of murine Folate Receptor 1 (mu FolR1 ECD-AcTev-Fcknob-Avitag … (murine, UniProt P0DOX5 223-449 = IgG part, biotin on the C-terminal Avi tag)).
T6 construct: also called muFolR1-Fc; murine FolR1
Described as above. The procedure: as §2, §3

Experiment [7] addresses T7, recombinant biotinylated monomeric Fc fusion of human Folate Receptor 1 (huFolR1 ECD-AcTev-Fcknob-Avi tag … (human, UniProt P0DOX5 223-449 = IgG part, biotin on the C-terminal Avi tag)).
T7 construct: also called huFolR1-Fc; human FolR1-Fc
The description is as above. As to the method: as §2, §3

In experiment [8] the target is T5, recombinant biotinylated monomeric Fc …. Description: SPR Biacore, affinity (monovalent), antibody captured via anti-Fab. As to the method:
(§4) The affinity of the interaction between the anti-FolR1 IgG or T cell bispecifics and the recombinant folate receptors was determined as described below (Table 26).
(§5) For affinity measurement, direct coupling of around 12000 resonance units (RU) of the anti-human Fab specific antibody (Fab capture kit, GE Healthcare) was performed on a CM5 chip at pH 5.0 using the standard amine coupling kit (GE Healthcare). Anti-FolR1 IgG or T cell bispecifics were captured at 20 nM with a flow rate of 10 μl/min for 40 sec, the reference flow cell was left without capture. […] The dissociation phase was monitored for 300 s and triggered by switching from the sample solution to HBS-EP. The chip surface was regenerated after every cycle using a double injection of 60 sec 10 mM Glycine-HCl pH 1.5. Bulk refractive index differences were corrected for by subtracting the response obtained on the reference flow cell 1. The affinity constants for the interactions were derived from the rate constants by fitting to a 1:1 Langmuir binding using the Bia Evaluation software (GE Healthcare).

The target in experiment [9] is T6, recombinant biotinylated monomeric Fc …. The description is as above. As to the method: as §4, §5
For experiment [10], the target named is T7, recombinant biotinylated monomeric Fc …. The description is as above. As to the method:
as §4, §5

T1 sequence (P14207 17-230): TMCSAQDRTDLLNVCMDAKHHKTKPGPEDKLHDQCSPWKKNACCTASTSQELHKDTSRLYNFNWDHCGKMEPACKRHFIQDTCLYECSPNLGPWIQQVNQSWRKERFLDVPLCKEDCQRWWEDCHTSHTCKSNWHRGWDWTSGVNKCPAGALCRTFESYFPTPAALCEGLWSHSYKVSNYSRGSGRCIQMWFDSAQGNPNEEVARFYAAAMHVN
T2 sequence (P15328 25-234): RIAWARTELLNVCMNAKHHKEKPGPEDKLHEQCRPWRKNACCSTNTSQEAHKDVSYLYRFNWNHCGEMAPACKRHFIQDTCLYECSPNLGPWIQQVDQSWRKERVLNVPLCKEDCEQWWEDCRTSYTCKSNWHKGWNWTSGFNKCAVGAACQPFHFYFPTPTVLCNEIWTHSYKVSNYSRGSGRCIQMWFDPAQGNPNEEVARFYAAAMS

B1: 36F2 IgG (antibody, V domains shown)
VH: QVQLVQSGAEVKKPGASVKVSCKASGYTFTSYYMHWVRQAPGQGLEWMGIINPSGGSTSYAQKFQGRVTMTHDTSTSTVYMELSSLRSEDTAVYYCARSFFTGFHLDYWGQGTLVTVSS
VL: EIVLTQSPGTLSLSPGERATLSCRASQSVSSSYLAWYQQKPGQAPRLLIYGASSRATGIPDRFSGSGSGTDFTLTISRLEPEDFAVYYCQQYTNEHYYTFGQGTKVEIK
Consider B1, for which the binding result in experiment [1] is “no binding”; in experiment [2], “binds”; in experiment [3], “no binding (tested: 500 nM)”; in experiment [4], “no binding (tested: 500 nM)”. Moreover, the Kd in experiment [5] came out at 5.31 nM; in [6], 1.63 nM; in [7] it was 5.74 nM; in experiment [8], 570 nM; in experiment [9], 210 nM; in experiment [10], 730 nM. Further, the off-rate constant (koff) (usually the first-order rate constant of dissociation) in [5] was determined as 0.016 s⁻¹; in experiment [6] it was 0.000603 s⁻¹; in [7], 0.0151 s⁻¹; in experiment [8] it was 0.0578 s⁻¹; in experiment [9], 0.0178 s⁻¹; in [10], 0.0665 s⁻¹. Further, the kon (in general, a measure of how fast the partners come together) in [5] stood at 3.02e+06 M⁻¹ s⁻¹; in [6] it was 370000 M⁻¹ s⁻¹; in experiment [7] it was 2.62e+06 M⁻¹ s⁻¹; in [8], 102000 M⁻¹ s⁻¹; in experiment [9], 83200 M⁻¹ s⁻¹; in [10] it was 91000 M⁻¹ s⁻¹.

The values are drawn from US20220220224A1 (Hoffmann-La Roche, published 2022).
